Source: the supplement of paper PMC12783771
± gives the standard deviation of the averaged measurements.

B1: library; numbered along this chain (parent)
chain: MNIQIGELAKRTACPVVTIRFYEQEGLLPPPGRSRGNFRLYGEEHVERLQFIRHCRSLDMPLSDVRTLLSYRKRPDQDCGEVNMLLDEHIRQVESRIGALLELKHHLVELREACSGARPAQSCGILQGLSDCVCDTRGTTAHPSD

Columns and labels:
[1] = variants of: B1; experiment: sfGFP reporter fluorescence (15 h) (µM FITC); higher = higher leak; settings: library round: Round 0; ligand: none
In short: (§1)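 With 1 µM lead chloride, 30 µM zinc acetate or no metal present, 1 μL Echo-assembled reactions were incubated 15 hr at 30 °C. They contained BL21 Star (DE3) PANOx-SP extract, 30 μg/mL GamS, the pPbrR-sfGFP reporter plasmid and PCR-made linear PbrR templates Echo-normalized to 5 nM. Endpoint sfGFP fluorescence was read on a Synergy Neo2 at 485/528 nm against FITC standards in 50 mM sodium borate pH 8.5. Results are expressed as µM FITC.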

[2] = variants of: B1; experiment: sfGFP reporter fluorescence (15 h) (µM FITC); higher = stronger transcriptional activation; settings: library round: Round 0
In short: as §1

| Variant | sfGFP reporter fluorescence [1] | sfGFP reporter fluorescence ([2]; ligand: 1 µM Pb) | sfGFP reporter fluorescence ([2]; ligand: 30 µM Zn) |
| --- | --- | --- | --- |
| MNIQIGELAKRTACPVVTIRFYEQEGLLPPPGRSRGNFRLYGEEHVERLQFIRHCRSLDMPLSDVRTLLSYRKRPDQDCGEVNMLLDEHIRQVESRIGALLELKHHLVELREACSGARPAQSCGILQGLSDCVPDTRGTTAHPSD [C134P] | 0.0667 ± 0.00052 | 0.0847 ± 0.011 | 1.54 ± 0.058 |
| MNIQIRELAKRTACPVVTIRFYEQEGLLPPPGRSRGNFRLYGEEHVERLQFIRHCRSLDMPLSDVRTLLSYRKRPDQDCGEVNMLLDEHIRQVESRIGALLELKHHLVELREACSGARPAQSCGILQGLSDCVCDTRGTTAHPSD [G6R] | 0.0605 ± 0.001 | 0.0632 ± 0.00078 | 0.116 ± 0.0039 |
| MNIQIGELAKRTACAVVTIRFYEQEGLLPPPGRSRGNFRLYGEEHVERLQFIRHCRSLDMPLSDVRTLLSYRKRPDQDCGEVNMLLDEHIRQVESRIGALLELKHHLVELREACSGARPAQSCGILQGLSDCVCDTRGTTAHPSD [P15A] | 0.0674 ± 0.0042 | 0.0953 ± 0.0088 | 0.691 ± 0.02 |
| MNIQIGELAKRTACPVVTIRFYEQEGLLPPPGRSRGNFRLYGEEHVERLQFIRHCRSLDMPLSDVRTLLSYRKRPDQDCGEVNMLLDEHIRQVESRIGALLELKHHLVELREACSGARPAQSCGILQGNSDCVCDTRGTTAHPSD [L129N] | 0.0586 ± 0.0015 | 0.05827 ± 0.00052 | 0.0535 ± 0.0036 |
| MNIQIGELAKRTACPAVTIRFYEQEGLLPPPGRSRGNFRLYGEEHVERLQFIRHCRSLDMPLSDVRTLLSYRKRPDQDCGEVNMLLDEHIRQVESRIGALLELKHHLVELREACSGARPAQSCGILQGLSDCVCDTRGTTAHPSD [V16A] | 0.059 ± 0.0015 | 0.0729 ± 0.0015 | 1.06 ± 0.1 |
| MNIQIGELAKRTACPVVTIRFYEQEGGLPPPGRSRGNFRLYGEEHVERLQFIRHCRSLDMPLSDVRTLLSYRKRPDQDCGEVNMLLDEHIRQVESRIGALLELKHHLVELREACSGARPAQSCGILQGLSDCVCDTRGTTAHPSD [L27G] | 0.0608 ± 0.001 | 0.0597 ± 0.0015 | 0.0649 ± 0.0036 |
| MNIQIGELAKRTACPVVTIRFYEQEGLLPPPGRSRGNFRLYGEEHVERLQFIRHCRSLDMPLSDVRTLLSYRKRPDQDCGEVNMLLDEHIRQVESRIGALLELKHHLVELREACSGARPAQSCAILQGLSDCVCDTRGTTAHPSD [G124A] | 0.05919 ± 0.00026 | 0.064 ± 0.0013 | 0.222 ± 0.015 |
| MNIQIGELAKRTACPVVTIRFYEQEGLLPPPGRSRGNFRLYGEEHVERLQFIRHCRSLDMPLSDVRTLLSYRKRPDQDCGEVNMLLDEHIRQVESRIGALLELKHHLVELREACSGARPAQSCGILQGLSDCVCDTRGTTAHQSD [P143Q] | 0.0566 ± 0.0039 | 0.0735 ± 0.0049 | 0.871 ± 0.098 |
| MNIQIGELAKRTACPVVTIRFYEQEGLLPPPGRSRGNFRLYGEEHVERLQFIRHCRSLDMPLSDVRTLLSYRKRPDQDCGEVNMLLDEHIRQVESRIGALLELKHHLVELREACSGARPAQSCGILQGLSDCVCDTRGTTAHYSD [P143Y] | 0.05846 ± 0.00026 | 0.0834 ± 0.0039 | 0.73 ± 0.013 |
| MNIQIGELAKRTACPVVTIRFYEQEGLLPPPGRSRGNFRLYGEEHVERLQFIRHCRSLDMNLSKVRTLLSYRKRPDQDCGEVNMLLDEHIRQVESRIGALLELVHHLVELREACSGARPAQSCGILQGLSDCVCDTRGTTAHPSD [P61N D64K K104V] | 0.26 ± 0.0026 | 0.752 ± 0.037 | 2.41 ± 0.1 |
| MNIQIGELAKRTACPVVTIRFYEQEGLLPPPGRSRGNFRLYGEEHVERLQFIRHCRSLDMPLSDVRTLLSYRKRPDQDCGEVNMLLDEHIRQVESRIGALLELKHHLVELREACSGARPAQSCGDLQGLSDCVCDTRGTTAHPSD [I125D] | 0.0585 ± 0.0013 | 0.0583 ± 0.0031 | 0.0559 ± 0.0039 |
| MNIQIGELAKRTACPVVTIRFYEQEGLLPPPGRSRGNFRLYGEEHVERLQFIRHCRSLDMPPSDVRTLLSYRKRPDQDCGEVNMLLDEHIRQVESRIGALLELKHHLVELREACSGARPAQSCGILQGLSDCVCDTRGTTAHPSD [L62P] | 0.06194 ± 0.00052 | 0.06487 ± 0.00052 | 0.0993 ± 0.0042 |
| MNIQIGELAKRTACPVVTIRFYEQEGLLPPPGRSRGNFRLYGEEHVERLQFIRHCRSLDMPLSDVRTLLSYRKRPDQDNGEVNMLLDEHIRQVESRIGALLELKHHLVELREACSGARPAQSCGILQGLSDCVCDTRGTTAHPSD [C79N] | 0.05919 ± 0.00026 | 0.0566 ± 0.0013 | 0.0557 |
| MNIQIGELAKRTACPVVTIRFYEQEGLLPPPGRSRFNFRLYGEEHVERLQFIRHCRSLDMPLSDVRTLLSYRKRPDQDCGEVNMLLDEHIRQVESRIGALLELKHHLVELREACSGARPAQSCGILQGLSDCVCDTRGTTAHPSD [G36F] | 0.0594 ± 0.001 | 0.0638 ± 0.0015 | 0.145 ± 0.0029 |
